*1 amine or outer side, *2 acyl side, *3 side chain or, on linkers, in order; H or OH if unused. Side-chain parts run from the residue outwards. [ ]: non-standard residue; d: D form. The star is where a group is joined. γGlu = O=C(O)[C@H](CCC(=O)[*:2])N[*:1]; Stearoyl = CCCCCCCCCCCCCCCCCC(=O)*; Palmitoyl = CCCCCCCCCCCCCCCC(=O)*; AEEA = NCCOCCOCC(=O)O; Aib = CC(C)(N)C(=O)O Bounds are passed on as bounds.

A short description of one series: in vivo. Conditions: ICR, mouse, sc, Mouse PK (S.C. half-life).
In a further series the target is glucagon receptor (Homo sapiens, UniProt P47871). Briefly: Human glucagon receptor activation assay (CRE-luciferase). Conditions: CHO-K1 cells transiently transfected. Further details: host or cells: CHO-K1. The format is cell-based. As for the experimental part: (§1) Then, the resulting increased luciferase activity was evaluated as a measurement of the effect on each receptor activation.
glucagon receptor, sequence (P47871 26-477): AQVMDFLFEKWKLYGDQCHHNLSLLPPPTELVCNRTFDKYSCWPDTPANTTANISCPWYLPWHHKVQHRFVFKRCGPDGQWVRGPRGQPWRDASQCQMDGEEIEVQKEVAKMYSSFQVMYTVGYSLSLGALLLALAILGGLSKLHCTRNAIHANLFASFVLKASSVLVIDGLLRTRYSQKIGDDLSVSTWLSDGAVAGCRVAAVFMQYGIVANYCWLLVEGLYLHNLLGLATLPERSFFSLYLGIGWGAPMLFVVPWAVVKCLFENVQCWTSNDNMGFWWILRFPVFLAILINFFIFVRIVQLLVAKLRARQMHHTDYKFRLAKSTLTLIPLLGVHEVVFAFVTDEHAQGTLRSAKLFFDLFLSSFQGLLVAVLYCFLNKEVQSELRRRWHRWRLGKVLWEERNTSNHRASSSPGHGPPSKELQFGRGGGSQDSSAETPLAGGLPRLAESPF
(§2) For positive control, endogenous ligand GLP-1 or glucagon was used for respective evaluation. The above-mentioned acylated oxyntomodulin peptide analogs of Comparative Example 8-12 were synthesized and used as comparative examples.
(§3) After 3 hours of transfection, medium was exchanged to Alpha Minimal Essential Medium (α-MEM) comprising 10% fetal bovine serum (FBS). Next day, the medium was exchanged to α-MEM comprising the acylated oxyntomodulin peptide analog of the present invention and 0.1% bovine serum albumin (BSA). After 6 hours, dual luciferase assay reagent (Promega) was added in the same amount as the medium in which the cells were submerged, and firefly luciferase and Renilla luciferase activities were successively measured. Firefly luciferase activity values were corrected against Renilla luciferase activity to yield transfection efficiency.

A further series addresses GLP-1 receptor (Homo sapiens, UniProt P43220). The experiment in a line: Human GLP-1 receptor activation assay (CRE-luciferase). The format is cell-based. Further details: host or cells: CHO-K1. The procedure:
as §1, §2, §3

In the next series the target is Human GLP-1 receptor (human, UniProt P43220). The experiment in a line: cell-based or functional assay.
For another series, the target named is Human glucagon receptor (human, UniProt P47871). The experiment in a line: cell-based or functional assay.

GLP-1 receptor, sequence (P43220 24-463): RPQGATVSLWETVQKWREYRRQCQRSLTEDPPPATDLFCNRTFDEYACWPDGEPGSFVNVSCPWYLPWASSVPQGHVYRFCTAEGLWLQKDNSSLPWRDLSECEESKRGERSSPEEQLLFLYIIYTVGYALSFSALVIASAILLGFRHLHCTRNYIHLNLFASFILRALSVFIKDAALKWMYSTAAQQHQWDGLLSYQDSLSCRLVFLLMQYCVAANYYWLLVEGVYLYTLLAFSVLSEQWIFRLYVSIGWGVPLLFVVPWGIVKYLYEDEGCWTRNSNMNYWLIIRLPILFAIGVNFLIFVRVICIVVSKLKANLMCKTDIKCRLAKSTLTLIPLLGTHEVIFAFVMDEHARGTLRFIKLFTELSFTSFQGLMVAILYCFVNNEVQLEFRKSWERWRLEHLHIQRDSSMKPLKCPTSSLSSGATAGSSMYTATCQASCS
Excerpt for in vivo: ICR mice were used to evaluate the pharmacokinetics in mice of the acylated oxyntomodulin peptide analogs according to the present invention.

A word on the half-life: it is the time needed for the level to fall by half in the phase considered. The low end stands for rapid decline, the high end for slow decline. One may read the EC50 as the concentration at which the effect is half-maximal. In turn, `CCCCCCCCCCCCCCCCCC(=O)N[C@@H](CCC(=O)NCCOCCOCC(=O)NCCOCCOCC(=O)NCCCC[C@H](NC(=O)[C@H](CC(=O)O)NC(=O)[C@H](CO)NC(=O)[C@@H](NC(=O)[C@H](Cc1ccccc1)NC(=O)[C@@H](NC(=O)CNC(=O)[C@H](CCC(N)=O)NC(=O)C(C)(C)NC(=O)[C@@H](N)Cc1c[nH]cn1)[C@@H](C)O)[C@@H](C)O)C(=O)N[C@@H](CO)C(=O)N[C@@H](CCCCN)C(=O)N[C@@H](Cc1ccc(O)cc1)C(=O)N[C@@H](CC(C)C)C(=O)N[C@@H](CC(=O)O)C(=O)NC(C)(C)C(=O)N[C@@H](CCCNC(=N)N)C(=O)N[C@@H](CCCNC(=N)N)C(=O)N[C@@H](C)C(=O)N[C@@H](CCC(N)=O)C(=O)N[C@@H](CC(=O)O)C(=O)N[C@@H](Cc1ccccc1)C(=O)N[C@H](C(=O)N[C@@H](CCC(N)=O)C(=O)N[C@@H](Cc1c[nH]c2ccccc12)C(=O)N[C@@H](CC(C)C)C(=O)N[C@@H](CCSC)C(=O)N[C@@H](CC(N)=O)C(=O)N[C@H](C(=O)N[C@@H](CCCCN)C(=O)O)[C@@H](C)O)C(C)C)C(=O)O` [Compound 8] returned a half-life in the series “in vivo” below 6 h. The Emax on glucagon receptor (6 h, relative to glucagon, read-out: GCG receptor Maximum activation (% vs GCG)) was found to be 103%; on GLP-1 receptor (CHO-K1, 6 h, read-out: GLP-1 receptor Maximum activation (% vs GLP-1)) it was 99.3%. Further, the EC50 is below 0.1 nM on glucagon receptor (6 hours, 0.1% BSA, read-out: GCG receptor EC50) and below 0.1 nM on GLP-1 receptor (CHO-K1 cells transiently transfected, luciferase, 6 hours, 0.1% BSA).
Regarding H-H[Aib]QGTFTSDK([AEEA-AEEA-γGlu-Stearoyl])SKYLD[Aib]RRAQDFVQWLMNTKEYEK(15‑aminocarboxy‑1‑oxopentadecyl)EYE-OH [Comparative Example Compound 11], in the series with Human GLP-1 receptor, the EC50 was below 0.1 nM and the “Maximum activation (% vs GLP-1)” value stood at 92.8%. Also, in the series with Human glucagon receptor, the EC50 is below 0.1 nM and the “Maximum activation (% vs GCG)” value stood at 98.5%.

B1: Comparative Example Compound 9 (peptide)
peptide: H-H[Aib]QGTFTSDK([AEEA-AEEA-γGlu-Stearoyl])SKYLD[Aib]RRAQDFVQWLMNTKEYEK(Palmitoyl)EYE-OH
SMILES: CCCCCCCCCCCCCCCCCC(=O)N[C@@H](CCC(=O)NCCOCCOCC(=O)NCCOCCOCC(=O)NCCCC[C@H](NC(=O)[C@H](CC(=O)O)NC(=O)[C@H](CO)NC(=O)[C@@H](NC(=O)[C@H](Cc1ccccc1)NC(=O)[C@@H](NC(=O)CNC(=O)[C@H](CCC(N)=O)NC(=O)C(C)(C)NC(=O)[C@@H](N)Cc1c[nH]cn1)[C@@H](C)O)[C@@H](C)O)C(=O)N[C@@H](CO)C(=O)N[C@@H](CCCCN)C(=O)N[C@@H](Cc1ccc(O)cc1)C(=O)N[C@@H](CC(C)C)C(=O)N[C@@H](CC(=O)O)C(=O)NC(C)(C)C(=O)N[C@@H](CCCNC(=N)N)C(=O)N[C@@H](CCCNC(=N)N)C(=O)N[C@@H](C)C(=O)N[C@@H](CCC(N)=O)C(=O)N[C@@H](CC(=O)O)C(=O)N[C@@H](Cc1ccccc1)C(=O)N[C@H](C(=O)N[C@@H](CCC(N)=O)C(=O)N[C@@H](Cc1c[nH]c2ccccc12)C(=O)N[C@@H](CC(C)C)C(=O)N[C@@H](CCSC)C(=O)N[C@@H](CC(N)=O)C(=O)N[C@H](C(=O)N[C@@H](CCCCN)C(=O)N[C@@H](CCC(=O)O)C(=O)N[C@@H](Cc1ccc(O)cc1)C(=O)N[C@@H](CCC(=O)O)C(=O)N[C@@H](CCCCNC(=O)CCCCCCCCCCCCCCC)C(=O)N[C@@H](CCC(=O)O)C(=O)N[C@@H](Cc1ccc(O)cc1)C(=O)N[C@@H](CCC(=O)O)C(=O)O)[C@@H](C)O)C(C)C)C(=O)O
As to B1, the “Maximum activation (% vs GLP-1)” value with Human GLP-1 receptor was 70.4%. Moreover, the “Maximum activation (% vs GCG)” value with Human glucagon receptor was found to be 73.3%.
On to H-H[Aib]QGTFTSDK([AEEA-AEEA-γGlu-Stearoyl])SKYLD[Aib]RRAQDFVQWLMNTKEYEK(13‑aminocarboxy‑1‑oxotridecyl)EYE-OH [Comparative Example Compound 10], for which, in the series with Human GLP-1 receptor, the EC50 was below 0.1 nM and the “Maximum activation (% vs GLP-1)” value worked out at 105%. In the series with Human glucagon receptor, the EC50 was below 0.1 nM and the “Maximum activation (% vs GCG)” value was found to be 110%.
For the molecule H-H[Aib]QGTFTSDK([AEEA-AEEA-γGlu-Stearoyl])SKYLD[Aib]RRAQDFVQWLMNTKEYEK(17‑aminocarboxy‑1‑oxoheptadecyl)EYE-OH [Compound 7], in the series with Human GLP-1 receptor, the EC50 is below 0.1 nM and the “Maximum activation (% vs GLP-1)” value worked out at 90.8%. In the series with Human glucagon receptor, the EC50 was below 0.1 nM and the “Maximum activation (% vs GCG)” value amounted to 100%.

B2: Comparative Example Compound 8 (peptide)
peptide: H-H[Aib]QGTFTSDK([AEEA-AEEA-γGlu-Stearoyl])SKYLD[Aib]RRAQDFVQWLMNTK-OH
SMILES: CCCCCCCCCCCCCCCCCC(=O)N[C@@H](CCC(=O)NCCOCCOCC(=O)NCCOCCOCC(=O)NCCCC[C@H](NC(=O)[C@H](CC(=O)O)NC(=O)[C@H](CO)NC(=O)[C@@H](NC(=O)[C@H](Cc1ccccc1)NC(=O)[C@@H](NC(=O)CNC(=O)[C@H](CCC(N)=O)NC(=O)C(C)(C)NC(=O)[C@@H](N)Cc1c[nH]cn1)[C@@H](C)O)[C@@H](C)O)C(=O)N[C@@H](CO)C(=O)N[C@@H](CCCCN)C(=O)N[C@@H](Cc1ccc(O)cc1)C(=O)N[C@@H](CC(C)C)C(=O)N[C@@H](CC(=O)O)C(=O)NC(C)(C)C(=O)N[C@@H](CCCNC(=N)N)C(=O)N[C@@H](CCCNC(=N)N)C(=O)N[C@@H](C)C(=O)N[C@@H](CCC(N)=O)C(=O)N[C@@H](CC(=O)O)C(=O)N[C@@H](Cc1ccccc1)C(=O)N[C@H](C(=O)N[C@@H](CCC(N)=O)C(=O)N[C@@H](Cc1c[nH]c2ccccc12)C(=O)N[C@@H](CC(C)C)C(=O)N[C@@H](CCSC)C(=O)N[C@@H](CC(N)=O)C(=O)N[C@H](C(=O)N[C@@H](CCCCN)C(=O)O)[C@@H](C)O)C(C)C)C(=O)O
In the case of B2, in the series with Human GLP-1 receptor, the EC50 was below 0.1 nM and the “Maximum activation (% vs GLP-1)” value was 99.3%. Besides, in the series with Human glucagon receptor, the EC50 is below 0.1 nM and the “Maximum activation (% vs GCG)” value was determined as 103%.
Regarding H-H[Aib]QGTFTSDK([AEEA-AEEA-γGlu-Stearoyl])SKYLD[Aib]RRAQDFVQWLMNTKEYEK(15‑carboxy‑1‑oxopentadecyl)EYE-OH [Compound 2], the “Maximum activation (% vs GLP-1)” value with Human GLP-1 receptor was 104%. For the same molecule, the “Maximum activation (% vs GCG)” value with Human glucagon receptor was 100%.

B3: Comparative Example Compound 12 (peptide)
peptide: H-H[Aib]QGTFTSDK([AEEA-AEEA-γGlu-Stearoyl])SKYLD[Aib]RRAQDFVQWLMNTKEYEK([AEEA-AEEA-AEEA-Palmitoyl])EYE-OH
SMILES: CCCCCCCCCCCCCCCCCC(=O)N[C@@H](CCC(=O)NCCOCCOCC(=O)NCCOCCOCC(=O)NCCCC[C@H](NC(=O)[C@H](CC(=O)O)NC(=O)[C@H](CO)NC(=O)[C@@H](NC(=O)[C@H](Cc1ccccc1)NC(=O)[C@@H](NC(=O)CNC(=O)[C@H](CCC(N)=O)NC(=O)C(C)(C)NC(=O)[C@@H](N)Cc1c[nH]cn1)[C@@H](C)O)[C@@H](C)O)C(=O)N[C@@H](CO)C(=O)N[C@@H](CCCCN)C(=O)N[C@@H](Cc1ccc(O)cc1)C(=O)N[C@@H](CC(C)C)C(=O)N[C@@H](CC(=O)O)C(=O)NC(C)(C)C(=O)N[C@@H](CCCNC(=N)N)C(=O)N[C@@H](CCCNC(=N)N)C(=O)N[C@@H](C)C(=O)N[C@@H](CCC(N)=O)C(=O)N[C@@H](CC(=O)O)C(=O)N[C@@H](Cc1ccccc1)C(=O)N[C@H](C(=O)N[C@@H](CCC(N)=O)C(=O)N[C@@H](Cc1c[nH]c2ccccc12)C(=O)N[C@@H](CC(C)C)C(=O)N[C@@H](CCSC)C(=O)N[C@@H](CC(N)=O)C(=O)N[C@H](C(=O)N[C@@H](CCCCN)C(=O)N[C@@H](CCC(=O)O)C(=O)N[C@@H](Cc1ccc(O)cc1)C(=O)N[C@@H](CCC(=O)O)C(=O)N[C@@H](CCCCNC(=O)COCCOCCNC(=O)COCCOCCNC(=O)COCCOCCNC(=O)CCCCCCCCCCCCCCC)C(=O)N[C@@H](CCC(=O)O)C(=O)N[C@@H](Cc1ccc(O)cc1)C(=O)N[C@@H](CCC(=O)O)C(=O)O)[C@@H](C)O)C(C)C)C(=O)O
Turning to B3, in the series with Human GLP-1 receptor, the EC50 was below 0.1 nM and the “Maximum activation (% vs GLP-1)” value was determined as 102%. In addition, in the series with Human glucagon receptor, the EC50 was below 0.1 nM and the “Maximum activation (% vs GCG)” value worked out at 89.6%.
